Source: article PMC4351136

Tests used:
[1] = molecular target: mouse β2GPI (beta2-glycoprotein I) (mouse (endogenous in pooled BALB/c mouse serum)) (UniProt Q01339); test: ELISA
[2] = molecular target: human β2GPI (beta2-glycoprotein I) (human (endogenous in pooled normal human serum)) (UniProt P02749); test: ELISA
[3] = molecular target: domain V of human β2GPI (human) (UniProt P02749); test: ITC
Sequence of domain V of human β2GPI (human) (P02749 263-345): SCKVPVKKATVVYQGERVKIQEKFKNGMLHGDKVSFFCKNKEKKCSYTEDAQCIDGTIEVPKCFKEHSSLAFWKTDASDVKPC

Sequence of human β2GPI (beta2-glycoprotein I) (human (endogenous in pooled normal human serum)) (P02749 20-345): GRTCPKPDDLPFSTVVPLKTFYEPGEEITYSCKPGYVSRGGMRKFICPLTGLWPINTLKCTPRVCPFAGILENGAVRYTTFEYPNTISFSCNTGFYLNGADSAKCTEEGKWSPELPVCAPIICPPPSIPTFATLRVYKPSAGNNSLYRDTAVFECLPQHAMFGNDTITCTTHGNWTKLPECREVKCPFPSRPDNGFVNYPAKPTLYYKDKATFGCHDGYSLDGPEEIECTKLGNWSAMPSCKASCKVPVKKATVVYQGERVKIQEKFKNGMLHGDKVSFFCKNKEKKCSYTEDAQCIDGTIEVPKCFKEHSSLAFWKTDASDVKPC
Sequence of mouse β2GPI (beta2-glycoprotein I) (mouse (endogenous in pooled BALB/c mouse serum)) (Q01339 20-345): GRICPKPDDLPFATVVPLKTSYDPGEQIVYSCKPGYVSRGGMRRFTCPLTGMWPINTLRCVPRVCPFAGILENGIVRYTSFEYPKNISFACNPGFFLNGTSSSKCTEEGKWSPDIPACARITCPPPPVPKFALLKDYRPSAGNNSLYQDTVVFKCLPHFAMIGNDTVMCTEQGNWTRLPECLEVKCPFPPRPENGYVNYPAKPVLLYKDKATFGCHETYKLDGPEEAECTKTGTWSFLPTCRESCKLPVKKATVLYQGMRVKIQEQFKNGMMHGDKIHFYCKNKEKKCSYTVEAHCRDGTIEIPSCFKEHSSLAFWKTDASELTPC

IC50 [1]	IC50 [2]	Kd [3]	dH [3]	stoichiometry N [3]	Substance
2.8 µM	2.5 µM	–	–	–	Asn36/Asp mutant of mouse A1-A1 (from UniProt Q924X6 40-75; Q924X6 40-75)
–	–	20 µM	-6.3 kcal/mol	1.06	human A1, first ligand-binding module of ApoE receptor 2 (ApoER2) (domain or fragment)
3.1 µM	5 µM	–	–	–	human A1-A1
–	–	26 µM	-5.5 kcal/mol	1.06	mouse A1, first ligand-binding module of ApoE receptor 2 (ApoER2) (domain or fragment)
3 µM	2.7 µM	–	–	–	mouse A1-A1
